The term Kd denotes the constant that tells how readily two partners part at equilibrium. The kon is a measure of how fast the partners come together. Lower therefore signals slow association.

This is an account of results in patent publication US20190211098A1 (Genentech, published 2019).

Assay [1] has as its target T1, HSV-1 glycoprotein B, full length, expressed on transfected 293T cells (human herpes simplex virus type-1, UniProt P06437 31-904).
T1 construct: Construct cloned from EF157316 (strain KOSc); also called HSV-1 gB; human herpesvirus 1 strain KOSc glycoprotein B (EF157316)
The assay can be described thus: flow cytometry, soluble PILRA-mFc 50 ug/ml on ligand-transfected 293T cells. In general terms: A flow cytometer gives signals particle by particle.

Assay [2] concerns the target T2, Full length myc-DDK tagged PIANP, expressed on transfected 293T cells (human, UniProt Q8IYJ0 32-282).
T2 construct: Bought construct (Origene Cat. No. RC207868); also called myc-PIANP; C12orf53 (human); not shown: myc-DDK tag of the Origene construct RC207868
T2 sequence: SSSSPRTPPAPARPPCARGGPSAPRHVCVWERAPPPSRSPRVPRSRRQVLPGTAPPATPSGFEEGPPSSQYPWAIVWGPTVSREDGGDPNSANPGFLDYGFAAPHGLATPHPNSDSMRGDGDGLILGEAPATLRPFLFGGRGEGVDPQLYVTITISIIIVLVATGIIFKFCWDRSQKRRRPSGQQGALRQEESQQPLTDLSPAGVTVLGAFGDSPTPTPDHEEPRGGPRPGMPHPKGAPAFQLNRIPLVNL
Described as above.

The target of another assay is T3, NPDC1-His (human, UniProt Q9NQX5 35-181, limits assumed).
T3 construct: not shown: His tag
T3 sequence: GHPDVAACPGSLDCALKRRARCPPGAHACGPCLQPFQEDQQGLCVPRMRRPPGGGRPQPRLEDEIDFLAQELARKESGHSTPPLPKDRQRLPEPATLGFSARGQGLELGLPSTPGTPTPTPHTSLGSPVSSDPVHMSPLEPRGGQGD
The assay can be described thus: SPR, NPDC1-His binding to PILRA variant. (Surface plasmon resonance follows binding to a sensor surface in real time, without labels.)

Assay [3] deals with T4, A72 variant of PILRA, full-length, expressed on transfected 293T cells (human, UniProt Q9UKJ1 20-303).
T4 construct: Point mutation put into the full-length G78 construct by site-directed mutagenesis; also called R72 substituted to alanine
In words: flow cytometry, soluble NPDC1-mFc 50 ug/ml on PILRA-variant-transfected 293T cells.
Method: (§1) Relative PILRA-ligand binding to PILRA variant transfected cells was performed as follows. […] Double positive cells were gated on the G78 sample and then the gates were overlaid on subsequent samples to maintain the same cell population throughout the experiment.
(§2) Cells were washed and NPDC1 and PILRA cell surface staining was assessed by flow cytometry using anti-mIgG2a-FITC and anti-PILRA antibodies, respectively. […] Binding of the G78 variant of PILRA to NPDC1 was considered 100%.

In assay [4] the target is T5, G80 variant of PILRA, full-length, expressed on transfected 293T cells (human, UniProt Q9UKJ1 20-303).
T5 construct: Point mutation put into the full-length G78 construct by site-directed mutagenesis; also called S80 substituted to glycine
Described as above.
Method: as §1, §2

Assay [5] addresses T6, R78 variant of PILRA (AD-protective), full-length, on cells (human, UniProt Q9UKJ1 20-303).
T6 construct: also called PILRA R78; rs1859788 variant
Described as above.
Method: as §1, §2

The target in assay [6] is T7, A76 variant of PILRA, full-length, expressed on transfected 293T cells (human, UniProt Q9UKJ1 20-303).
T7 construct: Point mutation put into the full-length G78 construct by site-directed mutagenesis; also called F76 substituted to alanine
The assay is described as above.
Method: as §1, §2

The target in a further assay is T8, Murine PILRA-His (mouse, UniProt Q2YFS3 32-198).
T8 construct: not shown: His tag
T8 sequence (Q2YFS3 32-198 limits assumed): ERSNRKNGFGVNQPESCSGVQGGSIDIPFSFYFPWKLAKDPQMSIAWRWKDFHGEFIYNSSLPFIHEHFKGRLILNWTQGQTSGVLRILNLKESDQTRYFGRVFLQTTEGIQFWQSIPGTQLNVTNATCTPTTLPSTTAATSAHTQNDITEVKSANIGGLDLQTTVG
The assay can be described thus: array SPR imaging, sandwich format: mAb 2 on the chip, murine PILRA-His 100 nM, then Fc-tagged ligand at 10 ug/ml; response normalised to the PILRA level.

Assay [7] addresses T9, A141 variant of PILRA (S141A), full-length, expressed on transfected 293T cells (human, UniProt Q9UKJ1 20-303).
T9 construct: Point mutation put into the full-length G78 construct by site-directed mutagenesis
The assay can be described thus: flow cytometry, soluble NPDC1-mIgG2a on PILRA-variant-transfected 293T cells.
Method: as §1

Assay [8] has as its target T10, A140 variant of PILRA (Q140A), full-length, expressed on transfected 293T cells (human, UniProt Q9UKJ1 20-303).
T10 construct: Point mutation put into the full-length G78 construct by site-directed mutagenesis
Described as above.
Method: as §1

The target in assay [9] is T6, R78 variant of PILRA (AD-protective), …. Described as above.
Method: as §1
Assay [10] addresses T11, Mouse PILRA extracellular domain fused to human CD3 zeta chain transmembrane and intracellular domains, on … (mouse; human).
T11 construct: domain: transmembrane and intracellular domains; also called cell surface PILRA
The assay can be described thus: cell-based competitive ELISA: 293-PILRA stable cells, antibody titrated together with a fixed amount of mouse CD99-Fc. (In an ELISA, binding on a coated surface is turned into a signal by an enzyme label.)

For assay [11], the target named is T12, Biotinylated mouse PILRA ECD (mouse, UniProt Q2YFS3 32-198, biotinylated (sites not given)).
T12 construct: Captured on Neutravidin plates; also called mPILRA; recombinant PILRA ECD
T12 sequence (Q2YFS3 32-198 limits assumed): as above
In words: competitive ELISA: biotinylated mouse PILRA ECD on Neutravidin plate, antibody titrated together with a fixed amount of mouse CD99-Fc.

T11 sequence (P20963 other isoform, or with tags, fused parts or gaps limits assumed): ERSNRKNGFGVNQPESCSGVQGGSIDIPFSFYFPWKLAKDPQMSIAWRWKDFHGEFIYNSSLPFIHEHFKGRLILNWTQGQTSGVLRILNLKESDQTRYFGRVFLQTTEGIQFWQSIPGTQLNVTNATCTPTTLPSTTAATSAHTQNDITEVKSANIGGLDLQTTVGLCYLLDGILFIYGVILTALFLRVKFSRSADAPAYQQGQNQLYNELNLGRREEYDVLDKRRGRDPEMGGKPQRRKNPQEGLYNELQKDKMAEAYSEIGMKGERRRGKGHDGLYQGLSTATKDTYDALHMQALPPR
Method for Murine PILRA-His: Murine PILRA ligand blocking using SPRA was performed as follows. 96×96 array-based SPR imaging system (Carterra USA) was used to epitope bin a panel of monoclonal antibodies. Purified antibodies were diluted at 10 μg/ml in 10 mM sodium acetate buffer pH 4.5. Using amine coupling, antibodies were directly immobilized onto a SPR sensorprism CMD 200M chip (XanTec Bioanalytics, Germany) using a Continuous Flow Microspotter (Carterra, USA) to create an array of 96 antibodies. For binning analysis, the IBIS MX96 SPRi (Carterra USA) was used to evaluate binding to the immobilized antibodies. Murine PILRA-His (Genentech Inc.) was first injected for 4 min at 100 nM and was followed by a second 4 min injection of purified antibody or ligand at 10 μg/ml. The surface was regenerated between cycles with 10 mM Glycine pH 1.7. The experiment was performed at 25° C. in a running buffer of 10 mM HEPES, pH 7.4, 150 mM NaCl, 3 mM EDTA, and 0.005% Tween 20. The binding data was processed using Epitope Binning software tool (Carterra, Inc).
Anti-murine PILRA antibodies directly immobilized via amine coupling were binned against each other and murine PILRA ligands to identify ligand blocking clones of interest.

B1: PILRA G78 variant extracellular domain fused to murine IgG2a Fc (Fc fusion)
chain: QPSGSTGSGPSYLYGVTQPKHLSASMGGSVEIPFSFYYPWELATAPDVRISWRRGHFHGQSFYSTRPPSIHKDYVNRLFLNWTEGQKSGFLRISNLQKQDQSVYFCRVELDTRSSGRQQWQSIEGTKLSITQAVTTTTQRPSSMTTTWRLSSTTTTTGLRVTQGKRRSDSWHISLET
notes: Made in CHO cells, protein A/G purified; also called PILRA-mFc G78; PILRA-Fc G78; not shown: Fc region of murine IgG2a, C-terminal tag
On to B1, for which the binding result in assay [1] was “binds”. Moreover, in assay [2], the binding result is reported as “binds”. Besides, in the assay with NPDC1-His, the Kd is 16.8 nM and the kon came out at 22000 M⁻¹ s⁻¹.

B2: NPDC1 extracellular domain (1-190 aa) fused to murine IgG2a Fc (Fc fusion)
chain: GHPDVAACPGSLDCALKRRARCPPGAHACGPCLQPFQEDQQGLCVPRMRRPPGGGRPQPRLEDEIDFLAQELARKESGHSTPPLPKDRQRLPEPATLGFSARGQGLELGLPSTPGTPTPTPHTSLGSPVSSDPVHMSPLEPRGGQGDGLALVLILA
notes: also called NPDC1-mFc; NPDC1-mFC; not shown: Fc region of murine IgG2a, C-terminal tag
Take B2: the “% of G78 variant binding” value in assay [3] was ~20 % of G78 variant; in assay [4], ~60 % of G78 variant; in [5], ~35 % of G78 variant; in assay [6], ~20 % of G78 variant. In addition, the binding result with Murine PILRA-His was “binds”. Further, the entries for the “% of G78 binding” value in assay [7], in assay [8] and in [9] were 117 % of G78, 22 % of G78 and 44 % of G78, respectively.

B3: Isotype control antibody 12D4 (antibody, mouse IgG2a, kappa, V domains shown)
VH: QVQLQQSGAELVTPGASVKLSCKTSGHTFTSYWMNWVNQKPGQGLEWIGWIYGGSGNTKYNQKFQGKATLTVDTSSSTAYMELRSLTSDDSAVYFCASGTNFFDYWGQGTMVTVSS
VL: DIVMTQSHKFMSTSVGDRVSITCKASQDVSTAVAWYQQKPGQSPKLLIYSASYRYTGVPDRFTGSGSGTDFTFTISSVQAEDLAVYYCQQHYSTPLTFGAGTKLELKR
For B3, the binding result in [10] and in assay [11] was “no binding (tested: 200 nM)” throughout.
